According to patent publication US20150258180A1 (UNIVERSITY OF MANITOBA, published 2015):

Tests used:
[1] = biological target: T1, human GM2 activator protein (GM2AP), recombinant, P17900
T1 chain: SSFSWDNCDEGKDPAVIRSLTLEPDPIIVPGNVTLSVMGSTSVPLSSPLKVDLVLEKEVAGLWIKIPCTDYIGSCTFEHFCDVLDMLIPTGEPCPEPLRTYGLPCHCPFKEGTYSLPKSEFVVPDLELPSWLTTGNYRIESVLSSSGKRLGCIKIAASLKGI

[2] = biological target: plasma membrane mannose-6-phosphate receptor of human Tay-Sachs fibroblasts (human, UniProt P11717 41-2491); assay: cell-based or functional assay
Chain of plasma membrane mannose-6-phosphate receptor of human Tay-Sachs fibroblasts (P11717 41-2491): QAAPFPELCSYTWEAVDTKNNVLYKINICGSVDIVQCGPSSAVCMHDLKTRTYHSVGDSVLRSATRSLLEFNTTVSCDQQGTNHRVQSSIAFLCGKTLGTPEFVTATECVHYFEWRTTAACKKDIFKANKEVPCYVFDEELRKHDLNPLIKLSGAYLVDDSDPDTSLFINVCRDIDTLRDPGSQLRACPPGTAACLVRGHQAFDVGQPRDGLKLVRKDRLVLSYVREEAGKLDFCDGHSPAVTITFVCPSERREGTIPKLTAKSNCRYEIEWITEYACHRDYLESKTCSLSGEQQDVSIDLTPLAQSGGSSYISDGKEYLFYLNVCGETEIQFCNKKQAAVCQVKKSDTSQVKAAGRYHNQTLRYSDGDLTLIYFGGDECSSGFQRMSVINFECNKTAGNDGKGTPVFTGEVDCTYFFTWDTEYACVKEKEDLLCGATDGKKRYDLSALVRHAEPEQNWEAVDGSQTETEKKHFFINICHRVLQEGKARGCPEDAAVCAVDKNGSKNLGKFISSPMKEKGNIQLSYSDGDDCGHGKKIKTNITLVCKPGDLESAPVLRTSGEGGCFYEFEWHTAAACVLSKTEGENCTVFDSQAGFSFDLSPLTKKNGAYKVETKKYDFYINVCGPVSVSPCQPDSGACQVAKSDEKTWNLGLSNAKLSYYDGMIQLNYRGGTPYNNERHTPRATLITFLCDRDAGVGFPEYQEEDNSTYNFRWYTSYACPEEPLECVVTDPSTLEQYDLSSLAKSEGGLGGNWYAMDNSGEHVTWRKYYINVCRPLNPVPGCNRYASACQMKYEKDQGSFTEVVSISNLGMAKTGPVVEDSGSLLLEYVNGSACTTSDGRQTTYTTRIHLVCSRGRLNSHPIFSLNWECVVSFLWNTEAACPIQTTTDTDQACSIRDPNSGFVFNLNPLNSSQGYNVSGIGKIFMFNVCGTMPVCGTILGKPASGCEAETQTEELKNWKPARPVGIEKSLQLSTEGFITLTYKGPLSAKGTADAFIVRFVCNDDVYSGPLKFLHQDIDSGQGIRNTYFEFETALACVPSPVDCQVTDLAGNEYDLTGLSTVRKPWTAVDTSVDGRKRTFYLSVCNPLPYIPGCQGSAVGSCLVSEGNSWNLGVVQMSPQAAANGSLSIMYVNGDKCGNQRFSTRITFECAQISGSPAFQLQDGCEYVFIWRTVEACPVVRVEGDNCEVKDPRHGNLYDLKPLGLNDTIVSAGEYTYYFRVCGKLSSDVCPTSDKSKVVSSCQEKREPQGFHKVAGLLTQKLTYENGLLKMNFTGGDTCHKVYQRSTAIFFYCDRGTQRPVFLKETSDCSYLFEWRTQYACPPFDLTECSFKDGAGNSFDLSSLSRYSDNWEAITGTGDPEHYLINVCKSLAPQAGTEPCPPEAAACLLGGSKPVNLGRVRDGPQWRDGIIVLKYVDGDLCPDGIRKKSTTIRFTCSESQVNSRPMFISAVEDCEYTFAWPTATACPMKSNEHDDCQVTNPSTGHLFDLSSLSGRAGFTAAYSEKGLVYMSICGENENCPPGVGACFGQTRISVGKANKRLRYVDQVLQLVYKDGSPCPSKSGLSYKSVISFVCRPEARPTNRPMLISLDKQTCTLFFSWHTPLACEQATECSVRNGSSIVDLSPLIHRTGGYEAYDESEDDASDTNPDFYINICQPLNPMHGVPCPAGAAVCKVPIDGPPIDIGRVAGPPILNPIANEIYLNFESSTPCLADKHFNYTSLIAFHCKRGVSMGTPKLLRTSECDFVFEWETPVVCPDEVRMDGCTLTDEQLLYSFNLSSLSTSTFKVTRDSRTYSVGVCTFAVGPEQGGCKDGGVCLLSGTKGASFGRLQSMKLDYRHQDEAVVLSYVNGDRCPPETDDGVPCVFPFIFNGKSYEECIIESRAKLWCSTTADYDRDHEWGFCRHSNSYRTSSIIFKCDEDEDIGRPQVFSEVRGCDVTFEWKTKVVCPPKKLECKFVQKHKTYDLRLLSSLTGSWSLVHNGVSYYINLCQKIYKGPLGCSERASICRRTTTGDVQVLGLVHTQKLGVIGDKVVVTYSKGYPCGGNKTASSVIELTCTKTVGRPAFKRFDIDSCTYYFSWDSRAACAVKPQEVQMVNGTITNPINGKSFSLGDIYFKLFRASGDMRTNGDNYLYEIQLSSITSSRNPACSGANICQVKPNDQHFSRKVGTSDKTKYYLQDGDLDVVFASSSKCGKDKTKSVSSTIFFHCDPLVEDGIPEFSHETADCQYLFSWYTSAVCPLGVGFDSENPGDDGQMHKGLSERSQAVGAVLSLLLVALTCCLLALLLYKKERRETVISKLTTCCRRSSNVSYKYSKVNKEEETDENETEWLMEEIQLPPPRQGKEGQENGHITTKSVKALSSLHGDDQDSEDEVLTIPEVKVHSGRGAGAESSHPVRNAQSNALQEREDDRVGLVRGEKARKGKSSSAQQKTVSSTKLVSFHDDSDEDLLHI

B1: mature variant α-subunit homodimer (500 mM NaCl DEAE fraction) (protein)
chain: LWPWPQNFQTSDQRYVLYPNNFQFQYDVSSAAQPGCSVLDEAFQRYRDLLFGSGSWPRPYLTGKRHTLEKNVLVVSVVTPGCNQLPTLESVENYTLTINDDQCLLLSETVWGALRGLETFSQLVWKSAEGTFFINKTEIEDFPRFPHRGLLLDTSRHYLPLKSILDTLDVMAYNKLNVFHWHLVDDQSFPYESFTFPELMRKGSYSLSHIYTAQDVKEVIEYARLRGIRVLAEFDTPGHTLSWGPGIPGLLTPCYSGSEPSGTFGPVNPSLNNTYEFMSTFFLEVSSVFPDFYLHLGGDEVDFTCWKSNPEIQDFMRKKGFGEDFKQLESFYIQTLLDIVSSYGKGYVVWQEVFDNKVKIQPDTIIQVWREDIPVNYMKELELVTKAGFRALLSAPWYLNRISYGQDWRKFYKVEPLAFEGTPEQKALVIGGEACMWGEYVDATNLVPRLWPRAGAVAERLWSNKLTRDMDDAYDRLSHFRCELVRRGVAAQPLYAGYCNQEFEQT
NBD-GM3 produced in the overnight in vitro NBD-GM2 hydrolysis assay (liposomes plus rGM2AP), against Hex A at the same number of MUG units [1]: the variant protein produces at least twice as much NBD-GM3 as Hex A
detectable NBD-GM3 in the in vitro NBD-GM2 hydrolysis assay with human GM2AP [1]: Only the assay containing Hex A or the variant protein produced detectable levels of NBD-GM3

B2: Hex A (β-hexosaminidase A), purified from human placenta (protein)
chain 1: LWPWPQNFQTSDQRYVLYPNNFQFQYDVSSAAQPGCSVLDEAFQRYRDLLFGSGSWPRPYLTGKRHTLEKNVLVVSVVTPGCNQLPTLESVENYTLTINDDQCLLLSETVWGALRGLETFSQLVWKSAEGTFFINKTEIEDFPRFPHRGLLLDTSRHYLPLSSILDTLDVMAYNKLNVFHWHLVDDPSFPYESFTFPELMRKGSYNPVTHIYTAQDVKEVIEYARLRGIRVLAEFDTPGHTLSWGPGIPGLLTPCYSGSEPSGTFGPVNPSLNNTYEFMSTFFLEVSSVFPDFYLHLGGDEVDFTCWKSNPEIQDFMRKKGFGEDFKQLESFYIQTLLDIVSSYGKGYVVWQEVFDNKVKIQPDTIIQVWREDIPVNYMKELELVTKAGFRALLSAPWYLNRISYGPDWKDFYIVEPLAFEGTPEQKALVIGGEACMWGEYVDNTNLVPRLWPRAGAVAERLWSNKLTSDLTFAYERLSHFRCELLRRGVQAQPLNVGFCEQEFEQT
chain 2: TQVQQLLVSITLQSECDAFPNISSDESYTLLVKEPVAVLKANRVWGALRGLETFSQLVYQDSYGTFTINESTIIDSPRFSHRGILIDTSRHYLPVKIILKTLDAMAFNKFNVLHWHIVDDQSFPYQSITFPELSNKGSYSLSHVYTPNDVRMVIEYARLRGIRVLPEFDTPGHTLSWGKGQKDLLTPCYSRQNKLDSFGPINPTLNTTYSFLTTFFKEISEVFPDQFIHLGGDEVEFKCWESNPKIQDFMRQKGFGTDFKKLESFYIQKVLDIIATINKGSIVWQEVFDDKAKLAPGTIVEVWKDSAYPEELSRVTASGFPVILSAPWYLDLISYGQDWRKYYKVEPLDFGGTQKQKQLFIGGEACLWGEYVDATNLTPRLWPRASAVGERLWSSKDVRDMDDAYDRLTRHRCRMVERGIAAQPLYAGYCNHENM
detectable NBD-GM3 in the in vitro NBD-GM2 hydrolysis assay with human GM2AP [1]: Only the assay containing Hex A or the variant protein produced detectable levels of NBD-GM3

B3: Hex B (β-hexosaminidase B), purified from human placenta (protein)
chain: TQVQQLLVSITLQSECDAFPNISSDESYTLLVKEPVAVLKANRVWGALRGLETFSQLVYQDSYGTFTINESTIIDSPRFSHRGILIDTSRHYLPVKIILKTLDAMAFNKFNVLHWHIVDDQSFPYQSITFPELSNKGSYSLSHVYTPNDVRMVIEYARLRGIRVLPEFDTPGHTLSWGKGQKDLLTPCYSRQNKLDSFGPINPTLNTTYSFLTTFFKEISEVFPDQFIHLGGDEVEFKCWESNPKIQDFMRQKGFGTDFKKLESFYIQKVLDIIATINKGSIVWQEVFDDKAKLAPGTIVEVWKDSAYPEELSRVTASGFPVILSAPWYLDLISYGQDWRKYYKVEPLDFGGTQKQKQLFIGGEACLWGEYVDATNLTPRLWPRASAVGERLWSSKDVRDMDDAYDRLTRHRCRMVERGIAAQPLYAGYCNHENM
detectable NBD-GM3 in the in vitro NBD-GM2 hydrolysis assay with human GM2AP (none for Hex B, the negative control) [1]: Only the assay containing Hex A or the variant protein produced detectable levels of NBD-GM3

B4: secreted variant β-hexosaminidase protein in conditioned media (enzyme)
chain: LWPWPQNFQTSDQRYVLYPNNFQFQYDVSSAAQPGCSVLDEAFQRYRDLLFGSGSWPRPYLTGKRHTLEKNVLVVSVVTPGCNQLPTLESVENYTLTINDDQCLLLSETVWGALRGLETFSQLVWKSAEGTFFINKTEIEDFPRFPHRGLLLDTSRHYLPLKSILDTLDVMAYNKLNVFHWHLVDDQSFPYESFTFPELMRKGSYSLSHIYTAQDVKEVIEYARLRGIRVLAEFDTPGHTLSWGPGIPGLLTPCYSGSEPSGTFGPVNPSLNNTYEFMSTFFLEVSSVFPDFYLHLGGDEVDFTCWKSNPEIQDFMRKKGFGEDFKQLESFYIQTLLDIVSSYGKGYVVWQEVFDNKVKIQPDTIIQVWREDIPVNYMKELELVTKAGFRALLSAPWYLNRISYGQDWRKFYKVEPLAFEGTPEQKALVIGGEACMWGEYVDATNLVPRLWPRAGAVAERLWSNKLTRDMDDAYDRLSHFRCELVRRGVAAQPLYAGYCNQEFEQT
modifications: mannose-6-phosphate on Asn-linked oligosaccharides
fold increase in intracellular MUGS activity of untransfected TSD fibroblasts grown in conditioned media [2]: ~38 fold
fold increase in intracellular MUGS activity of untransfected TSD fibroblasts grown in conditioned media containing 5 mM mannose-6-phosphate [2]: ~10 fold
